In one test the target is HLA-A*24:02. Briefly: IEDB peptide-MHC binding, purified MHC/competitive/fluorescence; filed as Kd, often an IC50 or EC50 that approximates it; ≥ and ≤ were set here for values at or beyond the usual limits of such assays. The conditions noted are these: source organism: Yersinia pestis Nepal516.
The target in a further test is HLA-A*68:23. The description is as above.
The target in the next test is HLA-A*32:07. The description is as above. Conditions: source organism: Yersinia pestis Nepal516.
A further test has as its target HLA-B*83:01. The description is as above.
In a further test the target is HLA-B*40:13. The description is as above.
The target of a further test is HLA-A*32:15. Described as above.
Test [1] concerns the target HLA-B*15:01. The description is as above.
For another test, the target named is HLA-B*45:06. The description is as above.
In the next test the target is HLA-C*06:02. The test is described as above.
The target of another test is HLA-A*02:01. The description is as above.
The target of a further test is HLA-B*58:01. Described as above. Conditions: source organism: Yersinia pestis Nepal516.
In another test the target is HLA-B*15:42. The test is described as above.
The next test concerns the target HLA-B*48:01. The test is described as above. Conditions: source organism: Yersinia pestis Nepal516.
In another test the target is HLA-A*29:02. The description is as above.
The target of the next test is HLA-A*02:19. The test is described as above.
The next test has as its target HLA-B*18:01. The test is described as above.
A further test deals with HLA-B*27:03. Described as above.
Test [2] concerns the target HLA-B*51:01. The test is described as above.
The next test addresses HLA-A*23:01. Described as above.
In the next test the target is HLA-B*39:01. The test is described as above.
For the next test, the target named is HLA-A*24:03. The description is as above.
The target of a further test is HLA-A*02:03. The description is as above.
In the next test the target is HLA-B*15:17. The description is as above.
A further test addresses HLA-A*02:11. The description is as above.
The target of a further test is HLA-A*02:12. The test is described as above.
The target in a further test is HLA-B*46:01. Described as above.
Another test has as its target HLA-B*57:01. Described as above.
The next test concerns the target HLA-A*26:01. The test is described as above.
The target in another test is HLA-A*03:01. Described as above.
The target in the next test is HLA-B*15:02. Described as above.
Another test has as its target HLA-C*04:01. Briefly: IEDB peptide-MHC binding, purified MHC/direct/fluorescence; filed as Kd, often an IC50 or EC50 that approximates it; ≥ and ≤ were set here for values at or beyond the usual limits of such assays. Conditions: source organism: Rickettsia sibirica 246.
Test [3] addresses HLA-B*51:01. The test is described as above. The conditions noted are these: source organism: Rickettsia conorii.
A further test addresses HLA-B*07:02. The test is described as above. The conditions noted are these: source organism: Rickettsia conorii.
Test [4] has as its target HLA-B*15:01. The test is described as above. Conditions: source organism: Rickettsia sibirica 246.
For the next test, the target named is HLA-C*05:01. The test is described as above.
The next test deals with HLA-C*12:03. The description is as above.
For another test, the target named is HLA-C*14:02. Briefly: IEDB peptide-MHC binding, purified MHC/competitive/fluorescence; filed as Kd, often an IC50 or EC50 that approximates it; ≥ and ≤ were set here for values at or beyond the usual limits of such assays. The conditions noted are these: source organism: human gammaherpesvirus 4.
The target of another test is HLA-B*27:20. The description is as above. Conditions: source organism: human gammaherpesvirus 4.
A further test addresses HLA-A*02:16. The test is described as above. Conditions: source organism: Shigella dysenteriae Sd197.
[5] abbreviates: source organism: Yersinia pestis Nepal516.
[6] abbreviates: source organism: Mycobacterium tuberculosis variant bovis BCG str. Pasteur 1173P2.
[7] abbreviates: source organism: Francisella tularensis subsp. tularensis FSC198.
Setting [8] is: source organism: human gammaherpesvirus 4.
Where [9] appears, read: source organism: Shigella dysenteriae Sd197.

pKd: −log10 of the molar value.

In general, pKd refers to −log10 of the Kd, conventionally taken in molar units. Read a low pKd as a large Kd. Regarding MLYPLLWMF, the negative logarithm of the Kd (pKd) in the test with HLA-A*24:02 is 7.42; with HLA-A*68:23 (setting [5]) it was 6.01; in the test with HLA-A*32:07, 6.22; in the test with HLA-B*83:01 (setting [5]) it was at most 5.30; in the test with HLA-B*40:13 (setting [5]), 5.46; with HLA-A*32:15 (setting [5]) it was 6.81. Besides, the pKd is 6.39 with HLA-B*15:01 [1] (setting [5]); at most 5.30 in the test with HLA-B*45:06 (setting [5]); 5.45 in the test with HLA-C*06:02 (setting [5]); 6.77 with HLA-A*02:01 (setting [5]); 5.69 with HLA-B*58:01; at most 5.30 with HLA-B*15:42 (setting [5]).
As for RMAMIPRTL, the pKd in the test with HLA-B*48:01 was 7.06.
For AEDLADHHV, the negative logarithm of the Kd (pKd) in the test with HLA-A*29:02 (setting [6]), with HLA-A*02:19 (setting [6]), in the test with HLA-B*18:01 (setting [6]), in the test with HLA-B*27:03 (setting [6]), with HLA-B*51:01 [2] (setting [6]) and with HLA-A*23:01 (setting [6]) was at most 4.70 in each case. Further, the pKd is at most 4.70 with HLA-B*39:01 (setting [6]); at most 4.70 with HLA-A*24:03 (setting [6]); at most 4.70 with HLA-B*15:01 [1] (setting [6]); at most 4.70 in the test with HLA-A*02:03 (setting [6]); at most 4.70 with HLA-B*15:17 (setting [6]); 7.88 in the test with HLA-A*02:11 (setting [6]). The pKd in the test with HLA-A*02:12 (setting [6]), in the test with HLA-B*46:01 (setting [6]), with HLA-A*02:01 (setting [6]), with HLA-B*57:01 (setting [6]), with HLA-A*26:01 (setting [6]) and with HLA-A*03:01 (setting [6]) was at most 4.70 throughout.
The sequence ILKEYPQVY gave a pKd with HLA-B*15:02 (source organism: Encephalitozoon cuniculi GB-M1) of 6.81.
FADSDNIAM: the negative-log Kd (pKd) was at most 4.70 with HLA-C*04:01; at most 4.70 with HLA-B*51:01 [3]; at most 4.70 with HLA-B*07:02; at most 4.70 in the test with HLA-B*15:01 [4]; at least 9.00 with HLA-C*05:01 (source organism: Rickettsia sibirica 246).
Take MIYNSFNPY: the negative-log Kd (pKd) with HLA-B*15:02 (setting [7]) and with HLA-C*12:03 (setting [7]) was at most 4.70 in each case.
Turning to YAMAIRQAI, the negative logarithm of the Kd (pKd) with HLA-A*68:23 (setting [8]) is 6.72; with HLA-C*14:02, 7.37; with HLA-B*83:01 (setting [8]), 5.99; in the test with HLA-B*40:13 (setting [8]) it was 7.62; with HLA-A*32:15 (setting [8]), 7.04; with HLA-B*27:20, 7.52. Besides, the pKd with HLA-B*45:06 (setting [8]) is at most 5.30; in the test with HLA-C*06:02 (setting [8]), 7.00; with HLA-B*15:42 (setting [8]), at most 5.30; with HLA-C*12:03 (setting [8]), at least 9.00; with HLA-C*05:01 (setting [8]), 5.65.
In the case of IEDDEIIWV, the pKd in the test with HLA-A*29:02 (setting [9]), with HLA-A*02:19 (setting [9]), in the test with HLA-B*18:01 (setting [9]), with HLA-B*27:03 (setting [9]), with HLA-B*51:01 [2] (setting [9]) and in the test with HLA-A*23:01 (setting [9]) was at most 4.70 in each case. The pKd in the test with HLA-B*39:01 (setting [9]) was at most 4.70; with HLA-A*24:03 (setting [9]), at most 4.70; in the test with HLA-B*15:01 [1] (setting [9]), at most 4.70; with HLA-A*02:03 (setting [9]) it was at most 4.70; in the test with HLA-B*15:17 (setting [9]), at most 4.70; in the test with HLA-A*02:11 (setting [9]), 9.70. The pKd with HLA-A*02:12 (setting [9]), in the test with HLA-B*46:01 (setting [9]), in the test with HLA-A*02:01 (setting [9]), in the test with HLA-B*57:01 (setting [9]), with HLA-A*26:01 (setting [9]) and with HLA-A*02:16 was at most 4.70 in each case. This sequence also had a pKd with HLA-A*03:01 (setting [9]) of at most 4.70.
